In paper PMC11758952, “A kinetic model for compound heterozygous pathogenic variants in Tyrosyl-tRNA synthetase gene YARS2-Associated neonatal phenotype” (The Journal of Biological Chemistry, 2024):

Biological target: the molecule itself
Assay: native gel or EMSA; native 8% PAGE of the unlinked enzyme (20 ug), 0.75 M Tris pH 8.8, 4 °C, 90 V for 3 h, Western blot (anti-His, anti-mt-TyrRS)

B1: human mitochondrial tyrosyl-tRNA synthetase (mt-TyrRS), WT/WT unlinked homodimer (enzyme, UniProt Q9Y2Z4 17-477, looked up)
chain: TLNLSVLLPLGLRKAHSGAQGLLAAQKARGLFKDFFPETGTKIELPELFDRGTASFPQTIYCGFDPTADSLHVGHLLALLGLFHLQRAGHNVIALVGGATARLGDPSGRTKEREALETERVRANARALRLGLEALAANHQQLFTDGRSWGSFTVLDNSAWYQKQHLVDFLAAVGGHFRMGTLLSRQSVQLRLKSPEGMSLAEFFYQVLQAYDFYYLFQRYGCRVQLGGSDQLGNIMSGYEFINKLTGEDVFGITVPLITSTTGAKLGKSAGNAVWLNRDKTSPFELYQFFVRQPDDSVERYLKLFTFLPLPEIDHIMQLHVKEPERRGPQKRLAAEVTKLVHGREGLDSAKRCTQALYHSSIDALEVMSDQELKELFKEAPFSEFFLDPGTSVLDTCRKANAIPDGPRGYRMITEGGVSINHQQVTNPESVLIVGQHILKNGLSLLKIGKRNFYIIKWLQL
notes: Construct provided by R. Giege; also called YARS2 enzyme; not shown: His-tag, C-terminal, kept
binding result: binds

B2: human mitochondrial tyrosyl-tRNA synthetase F185L, F185L/F185L unlinked homodimer (enzyme, UniProt Q9Y2Z4 17-477, looked up)
chain: TLNLSVLLPLGLRKAHSGAQGLLAAQKARGLFKDFFPETGTKIELPELFDRGTASFPQTIYCGFDPTADSLHVGHLLALLGLFHLQRAGHNVIALVGGATARLGDPSGRTKEREALETERVRANARALRLGLEALAANHQQLFTDGRSWGSFTVLDNSAWYQKQHLVDLLAAVGGHFRMGTLLSRQSVQLRLKSPEGMSLAEFFYQVLQAYDFYYLFQRYGCRVQLGGSDQLGNIMSGYEFINKLTGEDVFGITVPLITSTTGAKLGKSAGNAVWLNRDKTSPFELYQFFVRQPDDSVERYLKLFTFLPLPEIDHIMQLHVKEPERRGPQKRLAAEVTKLVHGREGLDSAKRCTQALYHSSIDALEVMSDQELKELFKEAPFSEFFLDPGTSVLDTCRKANAIPDGPRGYRMITEGGVSINHQQVTNPESVLIVGQHILKNGLSLLKIGKRNFYIIKWLQL
notes: Paternally inherited variant of the patient; also called p.F185L; not shown: His-tag, C-terminal, kept
binding result: binds
